Data reported in patent publication US20200024330A1.

Assays:
[1] = target: HIV-1 Env of isolate 93IN905 (HIV-1); test: cell-based or functional assay
[2] = target: Env of the clade D HIV-1 pseudoviruses of the cross-clade 162-pseudovirus panel (n = 25); test: cell-based or functional assay
[3] = target: Env of the clade B HIV-1 pseudoviruses of the cross-clade 162-pseudovirus panel (n = 31); test: cell-based or functional assay
[4] = target: Env of the clade F HIV-1 pseudoviruses of the cross-clade 162-pseudovirus panel (n = 15); test: cell-based or functional assay
[5] = target: HIV-1 93IN905 envelope glycoprotein (Env) (HIV-1); test: cell-based or functional assay
[6] = target: Env of the clade A HIV-1 pseudoviruses of the cross-clade 162-pseudovirus panel (n = 26); test: cell-based or functional assay
[7] = target: Env of the clade G HIV-1 pseudoviruses of the cross-clade 162-pseudovirus panel (n = 15); test: cell-based or functional assay
[8] = target: HIV-1 APV6 envelope glycoprotein (Env) (HIV-1); test: cell-based or functional assay
[9] = target: HIV-1 NL43 envelope glycoprotein (Env) (HIV-1); test: cell-based or functional assay
[10] = target: HIV-1 93UG077 envelope glycoprotein (Env) (HIV-1); test: cell-based or functional assay
[11] = target: HIV-1 MGRM-C-026 envelope glycoprotein (Env) (HIV-1); test: cell-based or functional assay
[12] = target: HIV-1 JRFL envelope glycoprotein (Env) (HIV-1); test: cell-based or functional assay
[13] = target: Env of the clade C HIV-1 pseudoviruses of the cross-clade 162-pseudovirus panel (n = 27); test: cell-based or functional assay
[14] = target: HIV-1 APV13 envelope glycoprotein (Env) (HIV-1); test: cell-based or functional assay
[15] = target: HIV-1 MGRM-C-027 envelope glycoprotein (Env) (HIV-1); test: cell-based or functional assay
[16] = target: HIV-1 JRCSF envelope glycoprotein (Env) (HIV-1) (UniProt P20871); test: cell-based or functional assay
[17] = target: HIV-1 Env of isolate MGRM-C-026 (HIV-1); test: cell-based or functional assay
[18] = target: Env of all HIV-1 pseudoviruses of the cross-clade 162-pseudovirus panel (n = 162); test: cell-based or functional assay
[19] = target: HIV-1 92BR020 envelope glycoprotein (Env) (HIV-1); test: cell-based or functional assay
[20] = target: HIV-1 92RW020 envelope glycoprotein (Env) (HIV-1); test: cell-based or functional assay
[21] = target: Env of the clade AG HIV-1 pseudoviruses of the cross-clade 162-pseudovirus panel (n = 10); test: cell-based or functional assay
[22] = target: HIV-1 Env of isolate JR-CSF (HIV-1) (UniProt P20871); test: cell-based or functional assay
[23] = target: HIV-1 MGRM-C-028 envelope glycoprotein (Env) (HIV-1); test: cell-based or functional assay
[24] = target: HIV-1 94UG103 envelope glycoprotein (Env) (HIV-1); test: cell-based or functional assay
[25] = target: HIV-1 APV17 envelope glycoprotein (Env) (HIV-1); test: cell-based or functional assay
[26] = target: HIV-1 MGRM-A-010 envelope glycoprotein (Env) (HIV-1); test: cell-based or functional assay
[27] = target: JR-FL gp120 ΔV1/ΔV2 (HIV-1 (isolate JR-FL)); test: ELISA on coated gp120; EC50 by nonlinear regression
[28] = target: JR-FL gp120 ΔV3 (HIV-1 (isolate JR-FL)); test: as above
[29] = target: WT JR-FL gp120 (HIV-1 (isolate JR-FL)); test: as above

B1: PGT-136 (antibody, V domains shown)
VH: QLQLQESGPGLVKPSETLSLTCTVSGGSMRGTDWGENDFHYGWIRQSSAKGLEWIGSIHWRGRTTHYKTSFRSRATLSIDTSNNRFSLTFSFVTAADTAVYYCARHKYHDIFRVVPVAGWFDPWGQGLLVTVSS
VL: EIVMTQSPPTLSVSPGETATLSCRASQNVKNNLAWYQLKPGQAPRLLIFDASSRAGGIPDRFSGSGYGTDFTLTVNSVQSEDFGDYFCQQYEEWPRTFGQGTKVDIK
Primary Neutralization Index (B cell culture well 5329 C19) [1]: 5.6
Primary Neutralization Index (B cell culture well 5366 P21) [1]: 5.5
Median IC50 against viruses neutralized with an IC50 <50 µg/ml [2]: 0.05 µg/mL
Median IC50 against viruses neutralized with an IC50 <50 µg/ml [3]: 13.2 µg/mL
Median IC50 against viruses neutralized with an IC50 <50 µg/ml [4]: 4.75 µg/mL
IC50 neutralization [5]: 0.0135 µg/mL
Median IC50 against viruses neutralized with an IC50 <50 µg/ml [6]: 2.34 µg/mL
Median IC50 against viruses neutralized with an IC50 <50 µg/ml [7]: 18.9 µg/mL
IC50 neutralization [8]: > 10 µg/mL
IC50 neutralization [9]: > 10 µg/mL
IC50 neutralization [10]: > 10 µg/mL
IC50 neutralization [11]: 6.5 ng/mL
IC50 neutralization [12]: > 10 µg/mL
Median IC50 against viruses neutralized with an IC50 <50 µg/ml [13]: 7.52 µg/mL
IC50 neutralization [14]: > 10 µg/mL
IC50 neutralization [15]: > 10 µg/mL
IC50 neutralization [16]: > 10 µg/mL
Primary Neutralization Index (B cell culture well 5329 C19) [17]: 6
Primary Neutralization Index (B cell culture well 5366 P21) [17]: 6.2
Median IC50 against viruses neutralized with an IC50 <50 µg/ml [18]: 7.81 µg/mL
IC50 neutralization [19]: > 10 µg/mL
IC50 neutralization [20]: 0.738 µg/mL
Median IC50 against viruses neutralized with an IC50 <50 µg/ml [21]: 29.1 µg/mL
Primary Neutralization Index (B cell culture well 5329 C19) [22]: 0.9
Primary Neutralization Index (B cell culture well 5366 P21) [22]: 1.1
IC50 neutralization [23]: > 10 µg/mL
IC50 neutralization [24]: > 10 µg/mL
IC50 neutralization [25]: > 10 µg/mL
IC50 neutralization [26]: > 10 µg/mL
EC50 [27]: 0.3 µg/mL
EC50 [28]: 0.1 µg/mL
EC50 [29]: 0.2 µg/mL
